Substitutions are numbered along the chain they refer to.

One assay has as its target T1, IL1RL1 (UniProt Q01638 19-328, limits assumed).
T1 construct: SPR analyte
T1 sequence (looked up): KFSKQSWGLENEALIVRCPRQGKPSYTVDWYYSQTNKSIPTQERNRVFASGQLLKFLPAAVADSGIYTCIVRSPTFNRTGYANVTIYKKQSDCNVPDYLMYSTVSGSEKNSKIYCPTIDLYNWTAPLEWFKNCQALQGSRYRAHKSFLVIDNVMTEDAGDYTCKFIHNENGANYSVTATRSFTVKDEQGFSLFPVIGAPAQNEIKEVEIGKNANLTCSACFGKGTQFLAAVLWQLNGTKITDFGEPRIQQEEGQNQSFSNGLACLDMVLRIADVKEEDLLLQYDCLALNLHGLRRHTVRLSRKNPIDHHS
Nature of the assay: SPR (Carterra LSA), antibody amine-coupled, 1:1 model.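 Further: HC30M sensor chip at 25 °C in HBS-TE, analyte at rising concentrations in buffer containing 0.5 mg/mL BSA, 5 min association then 15 min dissociation.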

Assay [1] addresses T2, IL1RL1 over-expressed on Expi293 cells (UniProt Q01638 19-556, limits assumed).
T2 construct: whole, on cells; Target of the flow cytometry MFI ratio (over-expressing cells over parent cells); also called cytokine over-expressing Expi293 cells
T2 sequence (looked up): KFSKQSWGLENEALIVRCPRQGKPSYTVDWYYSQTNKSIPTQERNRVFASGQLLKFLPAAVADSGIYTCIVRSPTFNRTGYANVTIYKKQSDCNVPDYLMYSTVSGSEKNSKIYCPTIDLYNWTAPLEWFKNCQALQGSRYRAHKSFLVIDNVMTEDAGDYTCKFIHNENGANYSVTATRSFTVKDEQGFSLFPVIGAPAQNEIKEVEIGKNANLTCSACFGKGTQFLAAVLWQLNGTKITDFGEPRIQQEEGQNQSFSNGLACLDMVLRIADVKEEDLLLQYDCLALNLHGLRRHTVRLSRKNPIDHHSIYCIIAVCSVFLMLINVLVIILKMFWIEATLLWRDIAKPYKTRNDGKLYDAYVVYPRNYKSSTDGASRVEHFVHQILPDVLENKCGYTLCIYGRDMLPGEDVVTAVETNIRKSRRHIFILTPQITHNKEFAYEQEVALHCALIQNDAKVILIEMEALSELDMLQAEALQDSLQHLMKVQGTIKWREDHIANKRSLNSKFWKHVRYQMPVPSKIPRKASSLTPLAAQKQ
The assay is described as follows: flow cytometry, 100 nM antibody, over-expressing Expi293 / parent cells.
Protocol: All incubations and washes were in buffer containing PBS+1% BSA. MFI Ratio is defined by the mean fluorescence intensity (MFI) of the cytokine over-expressing Expi293 cell over the Expi293 parent cell. […] EC50 was calculated in GraphPad Prism.

B1: IL1RL1-49 (Fc fusion, not shown: a dimerising Fc or GST)
VHH: EVQLVESGGGLVQPGGSLRLSCAASGRTVTMGWFRQAPGKEREFVAGINWESGSTDYADSVKGRFTISADNSKNTAYLQMNSLKPEDTAVYYCAALALGTDQSSTFDWGQGTLVTVSS
notes: VHH-Fc on IgG2 Fc
Usually Kd stands for the free concentration of one partner at which half of the binding sites on the other are occupied at equilibrium, for simple one-to-one binding. Low readings indicate higher affinity, high ones lower affinity. As usually defined, the koff is the first-order rate constant of dissociation. Low readings indicate slow dissociation, high ones fast dissociation. As usually defined, the kon is a measure of how fast the partners come together. In the assay with IL1RL1, B1 showed an equilibrium dissociation constant (Kd) of 2.42 nM, a dissociation rate constant (koff) of 0.000673 s⁻¹ and a kon of 277000 M⁻¹ s⁻¹. For the same molecule, the “100 nM FACS (MFI Ratio)” value in assay [1] came out at 248 MFI ratio.

B2: IL1RL1-57 (Fc fusion, not shown: a dimerising Fc or GST)
VHH: EVQLVESGGGLVQPGGSLRLSCAASGDIGSINSMGWFRQAPGKEREFLASVSWGFGSTYYADSVKGRFTISADNSKNTAYLQMNSLKPEDTAVYYCAVNRLLYYSSGYYQTSVDWGQGTLVTVSS
notes: VHH-Fc on IgG2 Fc
On to B2, for which, in the assay with IL1RL1, binding was put at a Kd of 1.73 nM, the dissociation rate constant (koff) is 0.000364 s⁻¹ and the association rate constant (kon) turned out to be 211000 M⁻¹ s⁻¹. For the same molecule, the “100 nM FACS (MFI Ratio)” value in assay [1] worked out at 282 MFI ratio.

B3: IL1RL1-45 (Fc fusion, not shown: a dimerising Fc or GST)
VHH: EVQLVESGGGLVQPGGSLRLSCAASGRTLSSYTMGWFRQAPGKEREFVAGIWSGGYTHYADSVKGRFTISADNSKNTAYLQMNSLKPEDTAVYYCAAVSSNSETFDWGQGTLVTVSS
notes: VHH-Fc on IgG2 Fc
As to B3, in the assay with IL1RL1, the Kd was found to be 1.19 nM, the koff came to 0.000326 s⁻¹ and the kon was 275000 M⁻¹ s⁻¹. Further, the “100 nM FACS (MFI Ratio)” value in assay [1] is 704 MFI ratio.

B4: IL1RL1-83 (Fc fusion, not shown: a dimerising Fc or GST)
VHH: B3 VHH with T28S, L29I, S31D
notes: VHH-Fc on IgG2 Fc
B4: in the assay with IL1RL1, the equilibrium dissociation constant (Kd) amounted to 1.2 nM, the koff came out at 0.00016 s⁻¹ and the kon was determined as 134000 M⁻¹ s⁻¹. For the same molecule, the “100 nM FACS (MFI Ratio)” value in assay [1] worked out at 628 MFI ratio.

B5: IL1RL1-54 (Fc fusion, not shown: a dimerising Fc or GST)
VHH: EVQLVESGGGLVQPGGSLRLSCAASGNIPPINAMGWFRQAPGKEREWVASISTSGSTITPYADSVKGRFTISADNSKNTAYLQMNSLKPEDTAVYYCAARSGWSGQYDWGQGTLVTVSS
notes: VHH-Fc on IgG2 Fc
In the assay with IL1RL1, B5 showed a Kd of 0.516 nM, an off-rate (koff) of 9.06e-05 s⁻¹ and an on-rate constant (kon) of 176000 M⁻¹ s⁻¹. Besides, the “100 nM FACS (MFI Ratio)” value in assay [1] worked out at 500 MFI ratio.

B6: IL1RL1-63 (Fc fusion, not shown: a dimerising Fc or GST)
VHH: EVQLVESGGGLVQPGGSLRLSCAASGRTLSSIYAMGWFRQAPGKEREGVAAIYSGGITTYADSVKGRFTISADNSKNTAYLQMNSLKPEDTAVYYCAAFDGYSGSDWGQGTLVTVSS
Regarding B6, in the assay with IL1RL1, the Kd was 0.153 nM, the koff is 3.16e-05 s⁻¹ and the on-rate (kon) stood at 207000 M⁻¹ s⁻¹. Besides, the “100 nM FACS (MFI Ratio)” value in assay [1] was determined as 451 MFI ratio.

B7: IL1RL1-44 (Fc fusion, not shown: a dimerising Fc or GST)
VHH: EVQLVESGGGLVQPGGSLRLSCAASGDYYAMGWFRQAPGKEREWVSSIGIAGTPTFYADSVKGRFTISADNSKNTAYLQMNSLKPEDTAVYYCAANVGVTGSYEWGQGTLVTVSS
notes: VHH-Fc on IgG2 Fc
In the assay with IL1RL1, B7 yielded a dissociation constant Kd not above 0.016 nM, a koff not above 1e-05 s⁻¹ and a kon of 626000 M⁻¹ s⁻¹. For the same molecule, the “100 nM FACS (MFI Ratio)” value in assay [1] stood at 448 MFI ratio.

B8: IL1RL1-47 (Fc fusion, not shown: a dimerising Fc or GST)
VHH: EVQLVESGGGLVQPGGSLRLSCAASGRTFSMGWFRQAPGKEREWVASISTSGSTITPYADSVKGRFTISADNSKNTAYLQMNSLKPEDTAVYYCAAQGSLYDDYDGLPIKYDWGQGTLVTVSS
notes: VHH-Fc on IgG2 Fc
In the assay with IL1RL1, B8 showed a Kd of 4.73 nM, a koff of 0.00031 s⁻¹ and a kon of 65600 M⁻¹ s⁻¹. The “100 nM FACS (MFI Ratio)” value in assay [1] was 467 MFI ratio.

B9: IL1RL1-46 (Fc fusion, not shown: a dimerising Fc or GST)
VHH: EVQLVESGGGLVQPGGSLRLSCAASGFTFSDIAMGWFRQAPGKEREFVAAINWSGGSTKYADSVKGRFTISADNSKNTAYLQMNSLKPEDTAVYYCAYSGIGTDWGQGTLVTVSS
notes: VHH-Fc on IgG2 Fc
As for B9, in the assay with IL1RL1, the Kd is 3.06 nM, the dissociation rate constant (koff) stood at 0.000553 s⁻¹ and the kon stood at 181000 M⁻¹ s⁻¹. Also, the “100 nM FACS (MFI Ratio)” value in assay [1] is 300 MFI ratio.

The values above are taken from US20230265179A1 (TWIST BIOSCIENCE, published 2023).
